The values below come from US20130045184A1 (published 2013).

The target in this experiment is T1, sperm FA-1 derived peptide (peptide 1, 35 residue peptide designed from antigen FA-1), biotinylated (biotin at the C-terminus, printed as '(SEQ ID NO: 1) - - - Biotin').
T1 peptide: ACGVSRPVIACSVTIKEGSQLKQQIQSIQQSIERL
Put plainly: phage ELISA, anti-phage HRP antibody (antibody to PVIII), OD. The protocol:
Infected E. coli TG-1 with panning output phages (as described above) were plated to yield individual colonies. These colonies were picked into 100 μl YTAG media in wells of a flat bottom sterile 96-well plate and grown at 30° C. shaker at 150 RPM ON. 10 μl of phage were transferred into a fresh 96-well plate containing 90 μl of YTAG+2.5 μl /ml (5×10⁸ CFU) of M13KO7 helper phage and grown at 37° C. without shaking for 30 min following shaking at 150 RPM for 30 minutes. Plates were centrifuged at 4000 RPM for 5 minutes at 14° C. and the supernatant was discarded. 200 μl /well of YTAK (with Kanamycin) was added and the plate was left to grow at 30° C. shaker at 150 RPM overnight. The bacteria plate was then centrifuged at 4000 RPM for 5 minutes at 4° C. and 100 μl of the supernatant mixed with 100 μl of PBST was used for the ELISA.
100 μl /well of antigen and control antigen were plated in ELISA plates at 4° C. overnight to coat the plates. The ELISA plates were washed once with washing buffer (300 μl/well of PBST) and blocked with 3% milk/PBS for 1 hr at room temperature (RT). […] The reaction was then stopped with […] of 1 M HCL solution plates were read plates at […]. Detection was achieved using a horseradish peroxidase (HRP)-tagged anti-phage antibody and the color resulting from the substrate-enzyme reaction was read with an automated ELISA reader.
On the technique in general: ELISA stands for enzyme-linked immunosorbent assay.

B1: scFv J102 (scFv)
scFv: MAEVQLLESGGGLVQPGGSLRLSCAASGFTFSDHDMHWVRQAPGKGLEWVSGISWKSDSMAYRDSVKGRFTISRDNSKNTLYLQMNSLRAEDTAVYYCARDQEHFDFDYWGQGTLVTVSSGSAGGGGSGGGGSGGGGSDIVLTQPPSASGTPGQRVTISCSGSSSNLGSNTVNWYQQLPGKAPKLLIYDNNQRPSGVPDRFSGSKSGTSASLAISGLRSEDEADYYCAAWDDSLSGLVFGTGTKLTVL
notes: Human-derived scFv from a phage display library; also called Clone J102
For the molecule B1, the binding result is “binds”.
